From patent US20240034757A1 (OXFORD UNIVERSITY INNOVATION, published 2024)

T1: CCL8_HUMAN (human, UniProt P80075 24-99)
T1 sequence (looked up): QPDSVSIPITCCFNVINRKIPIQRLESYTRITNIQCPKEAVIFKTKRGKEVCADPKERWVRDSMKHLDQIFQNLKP

T2: CXCL13_HUMAN (human, UniProt O43927 23-109)
T2 sequence: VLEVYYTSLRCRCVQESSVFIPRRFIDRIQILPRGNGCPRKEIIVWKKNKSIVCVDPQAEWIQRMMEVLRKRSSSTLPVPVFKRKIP

T3: CXCL14_HUMAN (human, UniProt O95715 35-111)
T3 sequence: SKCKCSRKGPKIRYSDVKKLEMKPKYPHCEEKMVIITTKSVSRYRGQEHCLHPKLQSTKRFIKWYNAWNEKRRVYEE

T4: CXCL8_HUMAN (human, UniProt P10145 28-99)
T4 sequence: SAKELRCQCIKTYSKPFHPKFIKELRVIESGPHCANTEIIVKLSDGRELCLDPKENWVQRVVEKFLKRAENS

T5: CXCL10_HUMAN (human, UniProt P02778 22-98)
T5 sequence: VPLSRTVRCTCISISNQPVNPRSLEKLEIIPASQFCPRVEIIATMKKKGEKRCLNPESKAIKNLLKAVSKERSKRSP

T6: CXCL7_HUMAN (human, UniProt P02775 59-128)
T6 sequence: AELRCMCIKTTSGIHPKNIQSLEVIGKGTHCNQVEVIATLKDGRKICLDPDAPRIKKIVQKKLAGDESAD

T7: CXCL9_HUMAN (human, UniProt Q07325 23-125)
T7 sequence: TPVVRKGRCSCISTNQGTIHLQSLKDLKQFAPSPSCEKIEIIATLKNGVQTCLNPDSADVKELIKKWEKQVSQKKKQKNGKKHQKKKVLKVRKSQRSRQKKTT

T8: mouse CXCL10 (mouse, UniProt P17515 22-98)
T8 sequence: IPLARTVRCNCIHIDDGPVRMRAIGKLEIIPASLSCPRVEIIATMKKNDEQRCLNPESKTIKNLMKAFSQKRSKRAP

T9: mouse CXCL2 (mouse, UniProt P10889 28-100)
T9 sequence: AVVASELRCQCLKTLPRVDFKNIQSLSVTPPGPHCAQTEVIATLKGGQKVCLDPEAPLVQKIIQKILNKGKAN

T10: mouse CXCL1 (mouse, UniProt P12850 25-96)
T10 sequence: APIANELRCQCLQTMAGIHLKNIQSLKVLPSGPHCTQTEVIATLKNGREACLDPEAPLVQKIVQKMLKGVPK

T11: CXCL1_HUMAN (human, UniProt P09341 35-107)
T11 sequence: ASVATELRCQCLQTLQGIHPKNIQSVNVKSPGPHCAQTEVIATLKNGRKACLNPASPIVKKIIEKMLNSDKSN

T12: CCL5_HUMAN (human, UniProt P13501 24-91)
T12 sequence: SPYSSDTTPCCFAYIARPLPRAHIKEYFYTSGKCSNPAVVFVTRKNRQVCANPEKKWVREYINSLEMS

B1: Evasin-1 peptide variant K92E encoded by EZ406190.1 (other)
chain: EDDEDYGDLGGCPFLVAENKTGYPTIVACKQDCNGTTETAPNGTRCFSIGDEGLRRMTANLPYDCPLGQCSNGDCIPKETYEVCYRRNWRDEKN
notes: also called Evasin-1 (EZ406190.1)
B2: P1126_AMBCA (other)
chain: KPQILQRTDKSTDSEWDPQTCPETCIPSKNITCSDGCVCVKLGEEEEGTCFNMTGVDWLGSPSDD
B3: P1142_AMBCA (other)
chain: KPQILQRTDHSTDSDWDPQMCPETCNPSKNISCSSECLCVTLGGGDETGTCFNMSGVDWLGHAQASDGHNDG
B4: P1821 (P1142:G4S:P1156:G4S:P991) (designed binder)
chain: KPQILQRTDHSTDSDWDPQMCPETCNPSKNISCSSECLCVTLGGGDETGTCFNMSGVDWLGHAQASDGHNDGGGGGSADDDNELFTVQYCGMNCTKDEGGTWTGCTGKKEGCKCYHESGKNYGLCLSTEYTDFSQYGNPSDSEIEAAKPKRSDTLSHGGGGSENGEGTTQPDYDNSTDYYNYEDFKCTCPAPHLNNTNGTVMKPIGCYYTCNVTRCTAPDTYPCYNLTEHQAKNLTTSPTTLCAVGNCDHGICVPNGTKELCFKAPNLEE
B5: P1820 (P1142:G4S:P1156:G4S:P467) (designed binder)
chain: KPQILQRTDHSTDSDWDPQMCPETCNPSKNISCSSECLCVTLGGGDETGTCFNMSGVDWLGHAQASDGHNDGGGGGSADDDNELFTVQYCGMNCTKDEGGTWTGCTGKKEGCKCYHESGKNYGLCLSTEYTDFSQYGNPSDSEIEAAKPKRSDTLSHGGGGSAEKSLDSDSSGEDYELWTQGCPFLVAENRTGFGTTVSCQHNCNGAIEKVPEGEPCYTIGEDGLGRMKLNLPYNCSLGECSGGVCVPNGRSDVCFKRTWEENNKAMA
B6: P672:EVA1 (P672_RHIPU (1-44): EVA1_RHISA (29-94)) (designed binder)
chain: VCEVSEQEGVGEDNATEDEDYEDFFKPVTCYFANSTVGPLRPPNCKQDCNGTTETAPNGTRCFSIGDEGLRRMTANLPYDCPLGQCSNGDCIPKETYEVCYRRNWRDEKN

Assays:
CCL8_HUMAN [1] = target: T1, CCL8_HUMAN; assay: BLI
CXCL13_HUMAN = target: T2, CXCL13_HUMAN; assay: BLI
CXCL12_HUMAN = CXCL12_HUMAN (human, UniProt P48061 22-89); assay: BLI
CXCL14_HUMAN = target: T3, CXCL14_HUMAN; assay: BLI
CXCL8_HUMAN [2] = target: T4, CXCL8_HUMAN; assay: BLI [Cont.]
CXCL10_HUMAN [3] = target: T5, CXCL10_HUMAN; assay: yeast surface display FACS re-test; further: test concentration or dose not given here
CXCL7_HUMAN = target: T6, CXCL7_HUMAN; assay: yeast surface display FACS re-test; further: test concentration or dose not given here
CXCL9_HUMAN = target: T7, CXCL9_HUMAN; assay: BLI
mouse CXCL10 = target: T8, mouse CXCL10; assay: cell-based or functional assay
mouse CXCL2 = target: T9, mouse CXCL2; assay: cell-based or functional assay
mouse CXCL1 = target: T10, mouse CXCL1; assay: cell-based or functional assay
CCL2_HUMAN = CCL2_HUMAN (human, UniProt P13500 24-99); assay: BLI, evasin immobilised
CXCL1_HUMAN = target: T11, CXCL1_HUMAN; assay: BLI, evasin immobilised
CXCL10_HUMAN [4] = target: T5, CXCL10_HUMAN; assay: BLI, evasin immobilised
CCL8_HUMAN [5] = target: T1, CCL8_HUMAN; assay: BLI, evasin immobilised
CCL5_HUMAN = target: T12, CCL5_HUMAN; assay: BLI, evasin immobilised
CXCL8_HUMAN [6] = target: T4, CXCL8_HUMAN; assay: BLI, evasin immobilised
CCL8_HUMAN [7] = target: T1, CCL8_HUMAN; assay: cell-based or functional assay

CXCL12_HUMAN, sequence (P48061 22-89 limits assumed): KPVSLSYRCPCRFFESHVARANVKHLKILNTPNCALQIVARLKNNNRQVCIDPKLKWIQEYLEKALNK
CCL2_HUMAN, sequence (P13500 24-99 limits assumed): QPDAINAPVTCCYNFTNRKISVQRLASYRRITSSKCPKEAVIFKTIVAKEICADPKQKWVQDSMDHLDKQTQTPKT

| Binder | binding result (CXCL13_HUMAN) | binding result (CXCL12_HUMAN) | binding result (CXCL14_HUMAN) | binding result (CXCL8_HUMAN [2]) | % cells over threshold fluorescence (CXCL10_HUMAN [3]) | % cells over threshold fluorescence (CXCL7_HUMAN) | Kd (CCL2_HUMAN) | Kd (CXCL1_HUMAN) | Kd (CXCL10_HUMAN [4]) | Kd (CCL8_HUMAN [5]) | Kd (CCL5_HUMAN) | Kd (CXCL8_HUMAN [6]) | further results |
| --- | --- | --- | --- | --- | --- | --- | --- | --- | --- | --- | --- | --- | --- |
| B1 |  |  |  |  |  |  |  |  |  |  |  |  | binding result (CCL8_HUMAN [1]): no binding (tested: 300 nM) |
| B2 | no binding (tested: 300 nM) | no binding (tested: 300 nM) | no binding (tested: 300 nM) | no binding (tested: 300 nM) | 66% | 74% |  |  |  |  |  |  |  |
| B3 | no binding (tested: 300 nM) | no binding (tested: 300 nM) | no binding (tested: 300 nM) | no binding (tested: 300 nM) | 80% | 71% |  |  |  |  |  |  | binding result (CXCL9_HUMAN): no binding (tested: 300 nM); IC50, activated mouse T cell migration (mouse CXCL10): 3.37 nM; IC50, mouse bone marrow granulocyte cell migration (mouse CXCL2): 0.66 nM; IC50, mouse bone marrow granulocyte cell migration (mouse CXCL1): 2.15 nM |
| B4 |  |  |  |  |  |  | 11.8 nM | 1.86 nM | 1.44 nM | 14.1 nM | 0.001 nM | 1.55 nM |  |
| B5 |  |  |  |  |  |  | 2.86 nM | 1.12 nM | 1.01 nM | 18.2 nM | 0.41 nM | 1.11 nM |  |
| B6 |  |  |  |  |  |  |  |  |  |  |  |  | Kd (CCL8_HUMAN [1]): 223 nM; IC50, CCL8 induced THP-1 monocyte cell migration (CCL8_HUMAN [7]): 48 nM |
